Laboratory results published in US11674128.

Target: mini-SaCas9-3 with four tandem repeats of SpyTag fused to its C-terminal (Streptococcus pyogenes)
Assay: cell-based or functional assay

**Q.** Which expression of the enhanced blue fluorescent protein 2 (EBFP2) reporter gene compared to the negative control does the source give for SpyCatcher:VPR here?
**A.** Its expression of the enhanced blue fluorescent protein 2 (EBFP2) reporter gene compared to the negative control is 100 fold.
